Data on 40 sequences can be found in the nanobody polyreactivity screen of Harvey et al. (2022).

The nature of this data set: yeast display, Sf9 membrane polyspecificity reagent, FACS + sequencing; frameworks hold sequencing errors. The method, boiled down: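 In a synthetic yeast display library (Saccharomyces cerevisiae BJ5465), nanobody expression was induced with galactose for 36–48 hours. FACS gates were set low and high (top ~1%) using anti-HA fluorescence for expression and streptavidin fluorescence for binding of the Sf9 membrane reagent. Each polyreactivity label is drawn from the gate of origin.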
As for “QVQLVESGGGLVQAGGSLSLSCAASASTFRYYTMGWYRQAPGKERELVAAISWTGGGTYYADSVKGRFTISRDNAKNTVYLQMNSLKPEDTAVYYCAASYYYELFRFDYWGQGTQVTVSS”, the “polyreactivity (PSR sort gate)” value is given as “high polyreactivity”. Consider “QVQLVESGGGLVQAGGSLSLSCAASGFIFDYYTMGWYRQAPGKEREFVAAINRRGDITYYADSVKGRFTISRDNAKNTVYLQMNSLKPEDTAVYSCAATLTWSSRYEYGYWGQGTQVTVSS”, for which the “polyreactivity (PSR sort gate)” value was “low polyreactivity”.

With “QVQLVESGGGLVQAGGSLSLSCAASGFTITSYAMGWYRQAPGKERELVAAINSGGSTNYADSVKGRFTISRDNAKNTVYLQMNSLIPEDNAVYYCAAKRRSYRITYVGVGYKYGYWGLGTQVTVSS”, the “polyreactivity (PSR sort gate)” value is given as “high polyreactivity”. Regarding “QVQLVESGGGLVQAGGSLSLSCAASGGIFAYNAMGWYRQAHGKEREWVATISSGVSTNYADSVKGRFTISRDNAKNTVYLQMNSLKPEDTAVYYCAAAIFITGYGSYGYWGQGTQVTVAS”, the “polyreactivity (PSR sort gate)” value is “low polyreactivity”. The value for “QVQLVESGGGLVQAGGSLSLSCAASGIIIYEYAMGWYRQAPGKEMELVAAISNGGSTYYADSVKGRFTISRDNAKNTVYLQMNSLKPEDTAVYYCAARGYFDALFDYWGQGTQVTVSS” was “low polyreactivity”. Turning to “QVQLVESGGGLVQAGGSLSLSCAASGITFDYYAMGWYRQAPGKERELVAAISGRGTSTYYADSVKGRFTLSRDNAKNTVYLQLNSLKPEDTAVYYCAADPAAQREQSFLCRRGPGYDYWGQGTQVTVSS”, the “polyreactivity (PSR sort gate)” value was “low polyreactivity”. As to “QVQLVESGGGLVQAGGSLSLSCAASGITFYGYAMGWYRQAHGKERELVATIRRSTGSTYYADSVKGRFTISRDNAMNTVYLQMNSLKPEDTAVYYCATRVWFPITSYDYWGQGTKVTVSS”, the “polyreactivity (PSR sort gate)” value is “low polyreactivity”.

As to “QVQLVESGGGLVQAGGSLSLSCAASGLTIYLYAKGWYRQPPGNERELVAAISRSGGSTYYADSVKGRFTISRDNAKNTVYLQMNSLKPEDTAVYYCAAVSYYPEIRKYYYWGQGTQVTVSS”, the “polyreactivity (PSR sort gate)” value is listed as “high polyreactivity”. The value for “QVQLVESGGGLVQAGGSLSLSCAASGNIFTIYAMGWYRKAPGKERELVARITWGGGNTYYADSVKGRFTISRDNAKNTVYLQMNSLKPEDSAVYYCNAVGPYDYRYGKYDYWGLGTQVTVSS” was “low polyreactivity”.

As to “QVQLVESGGGLVQAGGSLSLSCAASGNIFWGNAMGWYRQAPGKERELVAAITSIDSSTYYADSVKGRFTISRDNAKNTVYLQMNSLKPEDTAVYYCAADGDWYGYIWQSDDGYDSWGQGTQVTVSS”, the “polyreactivity (PSR sort gate)” value is given as “low polyreactivity”. On to “QVQLVESGGGLVQAGGSLSLSCAASGNNLYGNAMGWYRPAPGKERELVAGITSGGSTNYADSVKGRFTISRDNAKNTVYLQMNSLKREDTAVYYCNATSSGSIFGYDYWGQGTQVTVSS”, for which the “polyreactivity (PSR sort gate)” value is “low polyreactivity”.

With “QVQLVESGGGLVQAGGSLSLSCAASGRIFRYNAMGWYRQAPGKERELVATISRGGGSTYYADSVKGRFTISRDNAKNTVYLQMNSLKPEYTAVYYCAAVTYSRISGGYDYWGQGTQVTVSS”, the “polyreactivity (PSR sort gate)” value is “high polyreactivity”.

As for “QVQLVESGGGLVQAGGSLSLSCAASGRTFKYYTMGWYRQAPGKERELVAAISASGGSTYYADSVKGRFTISRDNAKNTVYLQMNSLKPEDTAVYYCAKGANRAIHKQPTRSRLDSWGQGTQVTVSS”, the “polyreactivity (PSR sort gate)” value was “high polyreactivity”. “QVQLVESGGGLVQAGGSLSLSCAASGRTFNSYAMGWYRQAPGKERELVAAISWSGGSTYYADSVKGRFTISRDNAKNTVYLQMNSLKPEDTAVFYCATERYQSSRYRSYWYPFDYWGQGTQVTVSS”: the “polyreactivity (PSR sort gate)” value is on record as “low polyreactivity”. As to “QVQLVESGGGLVQAGGSLSLSCAASGRTFSPYAMGWYRQAPGKERELVAAITNGGSTHYADSVKGRFTISRDNAKNTVYLQMNTLKPEYTAVYYCAKSRVLYGYAEYYEMDYWGQGTQVTVSS”, the “polyreactivity (PSR sort gate)” value is “low polyreactivity”. The value for “QVQLVESGGGLVQAGGSLSLSCAASGRTFSYYTMGWYRQAPGKERELVARISNRGTNTYYADSVKGRFTISRDNAKNTVYLQMNSLTPEDTAVYYCAKYYYTSIVGYDSWGQGTQVTVSS” was “low polyreactivity”; that for “QVQLVESGGGLVQAGGSLSLSCAASGSIFGRNTMGWYRQAPGKERELVAAITLRGGSTYYADSVKGRFTISRDNAKKTVYLQMNSLKPEDTSDYYCATDGWKQSAYDYWGQGTQVTVSS” was “low polyreactivity”. Next, “QVQLVESGGGLVQAGGSLSLSCAASGSIFGVNAMGWYRQAPGKERELVAAITLRSGSTYYADSVKGRFTISRDNAKNTVYIQMNSLKPEDTAVYYSATYSWGVDRPNYNYWGQGTQVTVSS”: “low polyreactivity”; “QVQLVESGGGLVQAGGSLSLSCAASGSIFRTYALGWYRQAPGKERELVASITKSGARTYYADSVKGRFTISRDNAKNTVYLQMNSLKPEDTAVYYCAAGYYSVTSRRYRMYYWGQGTQVTVSS”: “high polyreactivity”; “QVQLVESGGGLVQAGGSLSLSCAASGSIFRWYAMGWYRQAPGKERELVALISWRGGSTYADSVKGRFTISRDNAKNTVYLQMNSLKPEDTADYYCNARPGSSYWYDAQWGEYGYWGQGTQVTVSS”: “high polyreactivity”. On to “QVQLVESGGGLVQAGGSLSLSCAASGSIFSYYAMGWYRQAPGKARELVAAITANGGSTSYADSVKGRFTISRDTANNTVYLQMNRLKPEDTAVYYCAKESDYPDFVSTKGDYDYWGQGTQVTVSS”, for which the “polyreactivity (PSR sort gate)” value is given as “low polyreactivity”. In the case of “QVQLVESGGGLVQAGGSLSLSCAASGSILAVNAMGWYRQAPGKERELVAAISSRGGSTSYADSVKGRFTISRDNAKNTVYLQMNSLKPEDTAVYYCAVRAVRRLRTSVPVRFYYWGQGTQVTVSS”, the “polyreactivity (PSR sort gate)” value is listed as “high polyreactivity”.

Take “QVQLVESGGGLVQAGGSLSLSCAASGSILYINDMGWYRQAPGKERELVAAISWSGDSTIYADSVKGRFTISRDNAKNTVYLQMNSLKPEDTAVYYCNAVWYGGDMDYWGQGTQVTVSS”: the “polyreactivity (PSR sort gate)” value is “low polyreactivity”. On to “QVQLVESGGGLVQAGGSLSLSCAASGSIYWYAMGWYRQAPGKERELVSAISRRGGSTYYADSLKGRFTISRDNAKNTVYLQMNSLKPEDTAVYYCAVGIYGEYDYWGQGTQVTVSS”, for which the “polyreactivity (PSR sort gate)” value was “high polyreactivity”. With “QVQLVESGGGLVQAGGSLSLSCAASGSNFYYNVMGWYRQAPGKERELVAAISQSGVRTYYADSVKGRFTISRDNAKNTVYLQMNSLKPEDTAVYYCAAKARRLYASSYDYWGQGTQVTVSS”, the “polyreactivity (PSR sort gate)” value was “high polyreactivity”. Regarding “QVQLVESGGGLVQAGGSLSLSCAASGSTFFIYTMGWYRQAPGNEREFVAAISWTGGRTYYADSEKGRFTISRDNAKNTVFLQMNSLTPEDTAVYYCAARYKYSSYDYWGQGTQVTVSS”, the “polyreactivity (PSR sort gate)” value is reported as “high polyreactivity”. With “QVQLVESGGGLVQAGGSLSLSCAASGSTFIHNAMGWYRQAPGKERELVAAITSGGSTYYADSVKGRFTISRDNAKNTVYLQMNSLKPEDTAVYYCNRVSWRYSTMEYWGHGTQVTVSS”, the “polyreactivity (PSR sort gate)” value is “high polyreactivity”.

For “QVQLVESGGGLVQAGGSLSLSCAASGSTFKHYAMGWYRQAPGKERELVAAISSRGGSTHYADSVKGRFTISRDNAMNTVYLQMNSLKPEDTAVYYCARDTDPQSSRSSDYDYWGQGTHVTVSS”, the “polyreactivity (PSR sort gate)” value is recorded as “low polyreactivity”. Next, “QVQLVESGGGLVQAGGSLSLSCAASGSTFNRYAMRSYRQAPGQESELVDTINLNTGSTYADSVKGRFTISRDNAKNTVYLEMNSVKPEDTAVYYCAAVGQTHPTSPLSTKYDYWGQGTQVTVSS”: “low polyreactivity”. As to “QVQLVESGGGLVQAGGSLSLSCAASGSTFPKYAMGWYRQAPGKERELVAAISGSGGSTYYADSVKGRFTISRDNAKNTVYLQMNSLKPEDTAVYYSAVAWNVRGVGARQRDIYGYWGQGTQVTVST”, the “polyreactivity (PSR sort gate)” value is listed as “high polyreactivity”. For the sequence “QVQLVESGGGLVQAGGSLSLSCAASGSTFRYYTMGWYRQAPGKERELVAAISWTGGGTYYADSVKGRFTISRDNAKNTVYLQMNSLKPEDTAVYYCAASYYYELFRFDYWGQGTQVTVSS”, the “polyreactivity (PSR sort gate)” value is “high polyreactivity”. As for “QVQLVESGGGLVQAGGSLSLSCAASGSTFSLNTKGWYRQAPRKERELVAAITSGGSTNYADSVKGRFTISRDNAKNTVYLQMNSLKPEDTAVYYCAATPGRGGGYNYWGQGSQVTVSS”, the “polyreactivity (PSR sort gate)” value is reported as “low polyreactivity”. The value for “QVQLVESGGGLVQAGGSLSLSCAASGSTFVGYAMGWYRQAPGKEREFVAAITRGGSTNYADSVKGRFTISRDNAKNTVYLQMNSLNPEDTAVYYCAARDRREGFNFDYWGQGTQVTVSS” was “low polyreactivity”; that for “QVQLVESGGGLVQAGGSLSLSCAASGSTYARYTMGWYRQAPGKERELVAAISGRGGSTYYADSVKGRFTISRDNAKNTVYLQMNSLKPEDTAVYYCAAHDTYHSYGLYSWGQGTQVTVSS” was “low polyreactivity”. Next, “QVQLVESGGGLVQAGGSLSLSCAASGYIVKAYVMGWYRPAPGKVRELVAAITWSGGSTYYADTVKGRFTISRDNAKNTVYLQMNSLKPEDTAVYYCAAYARRYRTPYDFWGQGTQVTLSS”: “high polyreactivity”; “QVQLVESGGGLVQAGGSLSLSCAASGYTFLRYAMGWYRQAPGQERELVATISRSGGRTYYADSVKGRFTISRDNAKNTVYLLMNSLKPEDTSVYYCNAEAIVVNGGGYWGQGTQVTVSS”: “high polyreactivity”; “QVQLVESGGGLVQAGGSLSLSCAASGYTFYKYAMGSYIQAPGKERELVAAISSSGGSTYYADSVKGRFTISRDNAKNTVYLQMNSLKPEDTAVNYCAAYVYSNDYDYWGQGTQVTVSS”: “high polyreactivity”. The value for “QVQLVESGGGLVQAGGSLSLSCAATGLTFQQYAMGWYRQAPWKERELVAAITVSGGHTYYADSVKGRFTISRDNAKNTVYLQMNTLKPEDTAVYYCAAPPGYTGRYDYYYCGQGTQVTVSS” was “high polyreactivity”; that for “QVQLVESGGGLVQAGGSLSLSCSASGRTLYFYAMGWYRQAPGKERELVAAIRWRGGSTYYADSVKGRFTISRDNAKNTVYLQMNSLKPEDTAVYYCAADVPSGYDYWGQGTQVTVSS” was “high polyreactivity”; that for “QVQLVESGGGLVQAGGSLSLSSAASGSTFHRNTMGWYRQAPGKERELVAGISLRGVRTYYADSVKGRFTISRDNAKNSVYLQMNSLKPEDTAVYYCAGGGPYTRNFKLGYWGQGTQVSVSS” was “high polyreactivity”.
